# Target: AM receptor expressed in a cultured cell line (HEK293 cell line)
# Experiment: cell-based or functional assay
row,"Relative activity (%) (vs. hAM), intracellular cAMP, compound at 10^-6 M",Substance
1,27%,"amidated compound of Example 1: (IgG1 Fc Region)+(Linker S)+(AM-Gly), amidated (Fc fusion)"
2,11%,"amidated compound of Example 2: (IgG1 Fc Region)+(Linker K)+(AM-Gly), amidated (Fc fusion)"
3,27%,"amidated compound of Example 3: (IgG4 Fc Region)+(Linker S)+(AM-Gly), amidated (Fc fusion)"
4,49%,"amidated compound of Example 4: (IgG4 Fc Region)+(Linker K)+(AM-Gly), amidated (Fc fusion)"
5,88%,"amidated compound of Example 5: (IgG1 Fc Region)+(Linker S)+(AM (6-52)-Gly), amidated (Fc fusion)"
6,70%,"amidated compound of Example 6: (IgG1 Fc Region)+(Linker K)+(AM (6-52)-Gly), amidated (Fc fusion)"
7,68%,"amidated compound of Example 7: (IgG1 Fc Region)+(Linker S)+(AM (11-52)-Gly), amidated (Fc fusion)"
8,48%,"amidated compound of Example 8: (IgG1 Fc Region)+(Linker K)+(AM (11-52)-Gly), amidated (Fc fusion)"
9,54%,"amidated compound of Example 9: (IgG4 Fc Region)+(Linker S)+(AM (6-52)-Gly), amidated (Fc fusion)"
10,39%,"amidated compound of Example 10: (IgG4 Fc Region)+(Linker K)+(AM (6-52)-Gly), amidated (Fc fusion)"
11,36%,"amidated compound of Example 11: (IgG4 Fc Region)+(Linker S)+(AM (11-52)-Gly), amidated (Fc fusion)"
12,48%,"amidated compound of Example 12: (IgG4 Fc Region)+(Linker K)+(AM (11-52)-Gly), amidated (Fc fusion)"
